From patent publication US20180162952A1 (AbbVie / Abbott, published 2018)

B1: SC6.10.2 (antibody, V domains shown)
VH: QVQLQQSGAELVRPGVSVKISCKGSGYRFTDYPIHWVKQSHAKSLEWIGIISTYYGDVTNNPKFRGKATMTVDKSSTTAYMELARLTSEDSAIYYCARNDLFAYWGQGTLVTVSA
VL: DIVMTQSQKFMSTSVGDRVNVTCKASQNVGTNVVWYQQKTGQSPKALIHSASYRYSGVPDRFTGSGSGTDFTLTLSNVQSEDLAEYFCQHYNSFPYTFGGGTKLEIKR
notes: Murine monoclonal antibody from a hybridoma; also called H10.2; H10
B2: SC6.2.35 (antibody, V domains shown)
VH: QVQMQQSGAELMKPGASVKLSCKATGYTFTGYWIEWVKQRPGHGLEWIGEILPGSGRSNSNEKFKGKATFTADTSSNTAYMQLSSLTTEDSAIYYCARGKLSWGQGTLVTVSA
VL: DIVLTQSPASLAVSLGQRATISCRASESVDSFGNSFMHWYQQKPGQPPKLLIYAASNLGSGVPARFSGSGSGTDFSLNIHPVEEDDSAMYFCQQSKEVPRTFGGGSRLEIKR
notes: Murine monoclonal antibody from a hybridoma; also called H2.35; SC6.H2

What was measured:
[1] = biological target: T1, human PTK7, full length, expressed on transduced cells (human, UniProt Q13308 31-1070); assay: cell-based or functional assay
T1 sequence: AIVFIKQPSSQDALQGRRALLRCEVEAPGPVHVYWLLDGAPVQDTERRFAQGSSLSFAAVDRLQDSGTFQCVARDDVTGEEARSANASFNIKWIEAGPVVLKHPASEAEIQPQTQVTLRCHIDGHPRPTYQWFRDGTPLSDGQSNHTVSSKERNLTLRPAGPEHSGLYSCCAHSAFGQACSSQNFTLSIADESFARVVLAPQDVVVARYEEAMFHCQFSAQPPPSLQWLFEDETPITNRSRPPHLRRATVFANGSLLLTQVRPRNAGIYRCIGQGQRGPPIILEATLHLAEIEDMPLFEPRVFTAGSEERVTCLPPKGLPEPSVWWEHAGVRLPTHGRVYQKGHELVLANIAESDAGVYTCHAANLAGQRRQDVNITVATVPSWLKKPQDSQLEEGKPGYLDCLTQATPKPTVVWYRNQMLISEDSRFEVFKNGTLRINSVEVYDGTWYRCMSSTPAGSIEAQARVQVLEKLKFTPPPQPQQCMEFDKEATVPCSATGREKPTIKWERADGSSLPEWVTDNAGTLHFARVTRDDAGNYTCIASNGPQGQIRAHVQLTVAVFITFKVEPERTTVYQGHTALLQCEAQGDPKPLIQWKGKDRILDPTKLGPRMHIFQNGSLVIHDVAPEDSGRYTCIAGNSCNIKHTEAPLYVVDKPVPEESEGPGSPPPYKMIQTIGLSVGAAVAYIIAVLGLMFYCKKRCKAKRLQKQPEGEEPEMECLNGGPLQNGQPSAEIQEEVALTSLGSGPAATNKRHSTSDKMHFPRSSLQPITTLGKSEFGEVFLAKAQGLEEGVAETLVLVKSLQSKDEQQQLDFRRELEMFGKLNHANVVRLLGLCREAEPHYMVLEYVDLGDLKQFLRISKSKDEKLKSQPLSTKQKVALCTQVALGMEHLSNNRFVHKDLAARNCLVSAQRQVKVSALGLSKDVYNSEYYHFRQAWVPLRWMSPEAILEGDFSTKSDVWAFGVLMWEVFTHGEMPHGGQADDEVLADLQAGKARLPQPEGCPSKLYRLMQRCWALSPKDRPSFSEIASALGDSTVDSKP

murine PTK7-His [2] = biological target: T2, murine PTK7-His (murine, UniProt Q8BKG3 23-696, limits assumed); assay: ForteBio bio-layer interferometry, one antigen concentration (400 nM)
T2 construct: also called mouse PTK7-His; mouse PTK7
T2 sequence (looked up): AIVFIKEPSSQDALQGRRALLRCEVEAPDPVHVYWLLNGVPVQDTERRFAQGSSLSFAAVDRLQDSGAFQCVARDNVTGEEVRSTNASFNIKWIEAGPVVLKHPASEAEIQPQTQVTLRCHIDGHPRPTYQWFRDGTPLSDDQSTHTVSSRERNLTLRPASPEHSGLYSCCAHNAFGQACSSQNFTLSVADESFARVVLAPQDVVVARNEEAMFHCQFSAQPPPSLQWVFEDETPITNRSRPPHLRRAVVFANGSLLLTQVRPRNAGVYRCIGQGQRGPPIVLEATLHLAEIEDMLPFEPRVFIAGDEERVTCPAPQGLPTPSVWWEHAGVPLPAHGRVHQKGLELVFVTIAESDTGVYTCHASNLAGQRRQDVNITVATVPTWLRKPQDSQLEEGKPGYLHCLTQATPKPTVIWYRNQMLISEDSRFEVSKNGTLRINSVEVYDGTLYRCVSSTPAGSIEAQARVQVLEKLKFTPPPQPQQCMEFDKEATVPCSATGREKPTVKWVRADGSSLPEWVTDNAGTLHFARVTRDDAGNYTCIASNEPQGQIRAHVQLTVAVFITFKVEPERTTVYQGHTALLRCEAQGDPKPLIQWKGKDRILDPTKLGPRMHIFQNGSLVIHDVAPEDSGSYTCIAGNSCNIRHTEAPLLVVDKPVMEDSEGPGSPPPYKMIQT

[3] = biological target: T3, PTK7 ECD Ig domains 1-2 Fc fusion (human); assay: ELISA, Ig-domain Fc fusion captured by anti-human IgG Fc
T3 construct: Tested as supernatant of transfected 293 cells
T3 chain: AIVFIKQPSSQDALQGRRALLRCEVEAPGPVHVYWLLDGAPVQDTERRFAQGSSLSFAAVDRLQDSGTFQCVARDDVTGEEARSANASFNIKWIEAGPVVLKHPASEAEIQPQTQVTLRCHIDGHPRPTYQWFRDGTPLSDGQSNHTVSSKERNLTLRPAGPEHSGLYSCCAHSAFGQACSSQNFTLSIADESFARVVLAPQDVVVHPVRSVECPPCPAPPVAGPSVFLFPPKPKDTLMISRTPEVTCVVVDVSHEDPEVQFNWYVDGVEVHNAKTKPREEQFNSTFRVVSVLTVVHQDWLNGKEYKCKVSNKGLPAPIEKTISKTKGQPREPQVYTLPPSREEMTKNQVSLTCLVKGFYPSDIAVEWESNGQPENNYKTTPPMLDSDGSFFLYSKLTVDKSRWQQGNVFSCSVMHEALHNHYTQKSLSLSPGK
Procedure: Using these constructs several modulators were tested for their ability to recognize PTK7 proteins with deletions of defined Ig domains. Through an ELISA assay comprising the use of domain deleted constructs and run under standard conditions. In this regard PTK7 Ig domain Fc fusions were captured on ELISA plate coated with goat anti-human IgG Fc-specific (Jackson Immunoresearch) antibody. The ability of each murine anti-PTK7 antibody to bind the various deletion Fc fusion proteins was then detected with HRP-labeled goat anti-mouse Fc-specific antibody.

murine PTK7-His [4] = biological target: T2, murine PTK7-His; assay: ForteBio bio-layer interferometry, mouse PTK7-His against human PTK7-His

Binder | EC50, saporin (Fab-ZAP) cell killing, 293.PTK7 Cells [1] [pM] | binding result (murine PTK7-His [2]) | binding result [3] | binding to mouse PTK7 relative to human (murine PTK7-His [4]) [%]
B1 | 1.1 | no binding (tested: 400 nM) | – | –
B2 | 0.65 | – | binds | ~10
